Like-named read-outs stand apart in the source and are kept apart here.
How the values were obtained:
[1] = Octanol/water partition coefficient (LogD7.4); assay type: physicochemical
Experimental: Determination of the Octanol/Water Partition Coefficient (LogD7.4) LogD determination was performed in triplicate and repeated over three radiolabelings. Approximately 3.7 MBq of the ^68Ga‐radiolabeled peptide were added to qsp 500 μL of PBS (Gibco, France, pH=7.4) and 500 μL of octanol (Sigma Aldrich, USA) in microcentrifuge tubes. Tubes were shaken then vortexed and centrifuged at room temperature (3 min, 4000 rpm). 100 μL of each layer were sampled in separate test tubes and measured in a gamma‐counter (Wizard2, PerkinElmer, USA). LogD7.4 value was obtained by calculating the log10 of the ratio between the organic phase activity (cpm) and the aqueous phase activity (cpm). Both activities were decay‐corrected.

[2] = molecular target: NTS1; conditions: cited from earlier work
Experimental: The design of novel heterodimers was based on SAR studies. […] For this reason, the NT analogue JMV 438 ([Lys^8–Lys^9]NT[8–13]) was widely studied and validated as a positive control (NTS1 K i=4.0 nM, Chart 1).[19] Recently, in the attempt to improve the binding affinity towards NTS1, lipophilic residues were incorporated in the NT[8–13] sequence.[20] Among the new analogues, JMV 2007 (Chart 1), in which a trimethylsilylala ...

With `CC[C@H](C)[C@H](NC(=O)[C@H](Cc1ccc(O)cc1)NC(=O)[C@@H]1CCCN1C(=O)[C@H](CCCCN)NC(=O)[C@H](CCCCN)NC(=O)CCNC(=O)CCNC(=O)[C@H](CC(C)C)NC(=O)C[C@H](O)[C@H](CC(C)C)NC(=O)[C@H](Cc1c[nH]cn1)NC(=O)CNC(=O)[C@@H](NC(=O)[C@H](C)NC(=O)[C@H](Cc1c[nH]c2ccccc12)NC(=O)[C@H](CCC(N)=O)NC(=O)[C@@H](Cc1ccccc1)NC(=O)CCNC(=O)CCNC(=O)CN1CCN(CC(=O)O)CCN(CC(=O)O)CCN(CC(=O)O)CC1)C(C)C)C(=O)N[C@@H](CC(C)C)C(=O)O` [[^68Ga]Ga‐JMV 7110, metal not drawn] the logD ([1]; pH 7.4) was -2.74 ± 0.21.
For [Lys^8–Lys^9]NT[8–13] [JMV 438], the Ki [2] is given as 4 nM.
With `CC[C@H](C)[C@H](NC(=O)[C@H](Cc1ccc(O)cc1)NC(=O)[C@@H]1CCCN1C(=O)[C@H](CCCCN)NC(=O)[C@H](CCCCN)NC(=O)CCNC(=O)[C@H](CCC(=O)NCCC(=O)NCCC(=O)N[C@H](Cc1ccccc1)C(=O)N[C@@H](CCC(N)=O)C(=O)N[C@@H](Cc1c[nH]c2ccccc12)C(=O)N[C@@H](C)C(=O)N[C@H](C(=O)NCC(=O)N[C@@H](Cc1c[nH]cn1)C(=O)N[C@@H](CC(C)C)[C@@H](O)CC(=O)N[C@@H](CC(C)C)C(N)=O)C(C)C)NC(=O)CCNC(=O)CN1CCN(CC(=O)O)CCN(CC(=O)O)CCN(CC(=O)O)CC1)C(=O)N[C@@H](CC(C)C)C(=O)O` [[^68Ga]Ga‐JMV 7266, metal not drawn] the logD ([1]; pH 7.4) was -2.62 ± 0.13.
In the case of “[Lys^8‐Lys^9‐TMSAla^13]NT[8–13] [JMV 2007, NT[8-13] analogue with TMSAla at position 13]”, the IC50 [2] is given as 0.02 nM.
Work on `CC[C@H](C)[C@H](NC(=O)[C@H](Cc1ccc(O)cc1)NC(=O)[C@@H]1CCCN1C(=O)[C@H](CCCCN)NC(=O)[C@H](CCCCN)NC(=O)CCNC(=O)CCNC(=O)[C@H](CC(C)C)NC(=O)C[C@H](O)[C@H](CC(C)C)NC(=O)[C@H](Cc1c[nH]cn1)NC(=O)CNC(=O)[C@@H](NC(=O)[C@H](C)NC(=O)[C@H](Cc1c[nH]c2ccccc12)NC(=O)[C@H](CCC(N)=O)NC(=O)[C@@H](Cc1ccccc1)NC(=O)CCNC(=O)CCNC(=O)CN1CCN(CC(=O)O)CCN(CC(=O)O)CCN(CC(=O)O)CC1)C(C)C)C(=O)N[C@@H](C[Si](C)(C)C)C(=O)O` [[^68Ga]Ga‐JMV 7253, metal not drawn] yielded a logD ([1]; shake-flask octanol/PBS (Gibco) pH 7.4, 500 μL each, ~3.7 MBq 68Ga-peptide, room temperature, centrifuged 3 min 4000 rpm, gamma-counter, triplicate repeated over three radiolabelings, mean±SD, read-out: LogD7.4) of -2.46 ± 0.07.
